Biological target: T1, Cnu (UniProt P64467 1-71)
T1 sequence (looked up): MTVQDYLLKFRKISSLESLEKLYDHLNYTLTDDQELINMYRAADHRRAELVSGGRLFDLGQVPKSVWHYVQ
Assay: fluorescence polarisation; tryptophan fluorescence anisotropy of Cnu, titrated with H-NS(1-59) at select temperatures (278 to 310 K); apparent dissociation constants from fits assuming a 1:1 binding equilibrium
Settings: both partners purified

B1: H-NS_(1–59) (domain or fragment, UniProt P0ACF8 1-59, looked up)
chain: MSEALKILNNIRTLRAQARECTLETLEEMLEKLEVVVNERREEESAAAAEVEERTRKLQ
fold decrease of binding affinity, 310 K against 278 K: ~5 fold
